Test results as given in patent US20020099177A1 (Human Genome Sciences, published 2002).

Biological target: T1, IL-1 receptor type I (Flag-IL-1RI) (human, UniProt P14778 18-569)
T1 construct: not shown: Flag tag from pCMV-1-Flag expression vector
T1 sequence (looked up): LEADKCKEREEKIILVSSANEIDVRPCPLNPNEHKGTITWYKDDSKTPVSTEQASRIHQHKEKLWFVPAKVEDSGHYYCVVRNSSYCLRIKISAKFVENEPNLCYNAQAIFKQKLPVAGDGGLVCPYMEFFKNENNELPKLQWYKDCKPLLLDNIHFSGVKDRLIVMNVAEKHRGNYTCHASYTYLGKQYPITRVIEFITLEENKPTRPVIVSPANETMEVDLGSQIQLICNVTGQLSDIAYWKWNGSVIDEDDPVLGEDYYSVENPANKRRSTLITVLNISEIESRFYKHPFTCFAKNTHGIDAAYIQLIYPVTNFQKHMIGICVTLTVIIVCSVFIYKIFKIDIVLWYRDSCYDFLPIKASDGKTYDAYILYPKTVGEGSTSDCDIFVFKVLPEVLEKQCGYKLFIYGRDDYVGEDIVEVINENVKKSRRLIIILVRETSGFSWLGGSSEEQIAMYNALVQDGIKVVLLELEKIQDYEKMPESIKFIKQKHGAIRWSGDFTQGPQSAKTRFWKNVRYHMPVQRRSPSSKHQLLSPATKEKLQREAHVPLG
Experiment: coimmunoprecipitation from transfected 293/293T cell lysates
Protocol: The total amount of DNA was kept constant. 24-36 hours after transfection, cells were lysed in 0.5 ml buffer (1% NP40, 150 mM NaCl, 50 mM Tris, 1 mM EDTA and protease inhibitors cocktail). Cell lysates were adjusted to 0.7 M NaCl and the indicated antibodies were added for 1 to 4 hours. Immune complexes were precipitated by the addition of protein-G-Sepharose (Sigma). After extensive washing, the Sepharose heads were boiled in sample buffer and the eluted proteins fractionated by SDS-PAGE. Subsequent protein immunoblotting was performed as described (Chinnaiyan, A., et al., Cell 81:505-12 (1995)).

B1: IRAK-2 (97-590) (enzyme)
chain: PEIRCPIPAFPDSVKPEKPLAASVRKAEDEQEEGQPVRMATFPGPGSSPARAHQPAFLQPPEEDAPHSLRSDLPTSSDSKDFSTSIPKQEKLLSLAGDSLFWSEADVVQATDDFNQNRKISQGTFADVYRGHRHGKPFVFKKLRETACSSPGSIERFFQAELQICLRCCHPNVLPVLGFCAARQFHSFIYPYMANGSLQDRLQGQGGSEPLPWPQRVSICSGLLCAVEYLHGLEIIHSNVKSSNVLLDQNLTPKLAHPMAHLCPVNKRSKYTMMKTHLLRTSAAYLPEDFIRVGQLTKRVDIFSCGIVLAEVLTGIPAMDNNRSPVYLKDLLLSEIPSSTASLCSRKTGVENVMAKEICQKYLEKGAGRLPEDCAEALATAACLCLRRRNTSLQEVCGSVAAVEERLRGRETLLPWSGLSEGTGSSSNTPEETDDVDNSSLDASSSMSVAPWAGAATPLLPTENGEGRLRVIVGREADSSSEACVGLEPPQDVT
notes: Truncated IRAK-2 lacking the N-terminal domain (DD); also called IRAK-2 (97-590)-MyC; mutant version of IRAK-2 lacking the first 96 amino acid residues; not shown: C-terminal Myc(-His) tag from pCDNA3-MyC-His vector
  binding result: no binding
